Laboratory results as given in the RNAGym collection of RNA variant scans (doi:10.7554/elife.80360).

B1: Twister Ribozyme (parent)
chain: AACACUGCCAAUGCCGGUCCCAAGCCCGGAUAAAAGUGGAGGGGGCGG

Variants of: B1
Assay: self-cleavage, relative activity (ratio to wild type); higher = more cleavage; co-transcriptional

Variant	self-cleavage
C9A A40G	0.129
G16A G48C	1.08
C25U G42U	0.0953
A23U U31C	0.682
G42U G47C	0.224
G42U G47U	0.296
C21G C26A	0.0789
C26U G45A	0.232
A4G U37A	0.796
U6C C19G	0.0653
G16A C20G	0.158
A34C U37G	0.249
U12C G24C	0.0606
U6A G45U	0.695
C21G A30C	0.0405
A1U C46G	0.0557
C9U A35G	0.615
C9U A35C	0.636
A4U U6C	0.0522
U31G A32U	0.765
G29U C46A	0.876
C8G C19A	0.0465
G47A G48C	0.942
C3U C15G	0.125

Variant	self-cleavage
G28C G44U	0.738
C5U C19G	0.107
U12G G47U	0.703
G7C C21U	0.0396
U6C G7C	0.0439
G28C G36U	0.101
A22G A33U	0.237
A23U G43C	0.146
G13U U37G	0.119
C26A A35G	0.219
C25G G43U	0.133
G41A G43U	0.135
A23C C25U	0.116
G13A A33U	1.01
G29A G36U	0.265
G13U G29A	0.368
U12G C46G	0.757
G16A A30U	1.04
G13C A35G	0.139
U18A C25G	0.0662
C9G C25G	0.0708
C9G C25A	0.0478
C3U G48U	0.562
C21A G38U	0.0847

Variant	self-cleavage
U18A A33G	0.203
G13U C19A	0.0828
U18C G24A	0.0865
U31C G48C	1.2
A10G A40G	0.185
A10G A40C	0.46
A1C G48A	0.164
C20G G39U	0.0983
U18G A33C	0.0995
U18G A33G	0.0866
A33C G41U	0.265
G7C G13C	0.0439
G13U G47U	0.197
C19G A40C	0.132
G16A G43C	0.181
U6A	1.03
U6G	0.486
A33C G38U	0.72
A33C G38A	0.867
G13A A22G	0.107
A1U C20U	0.0599
U18G G48A	0.0606
G16A G28A	0.48
A35G G45C	0.373

Variant	self-cleavage
A23U C26U	0.153
C9A C20G	0.0801
U31A A40C	0.207
A4U A33U	0.0597
C19U A23U	0.203
C9G G13C	0.876
A10G G29C	1.01
G13C C27A	0.0712
G16C G45C	0.249
C14A G36U	0.221
A23U G47C	0.213
A1G G7U	0.137
U6A G44U	0.925
U6C C25G	0.0594
A10U G45A	0.999
C8G G39C	0.135
G39C G42U	0.144
G39C	0.158
A32C G48A	0.929
C5A G16U	0.237
A4U U37G	0.624
G7A A22C	0.519
A40C G45U	0.171
C9G	0.733

Variant	self-cleavage
U6G A11U	0.381
A1U C26A	0.086
A10G A23C	0.714
C25A G41C	0.106
G16U G42A	0.26
G7U G29C	0.0397
A4C C15G	0.0431
C21G A23U	0.032
C3A C8A	0.116
A4C A11U	0.16
C27G A30U	0.0941
U12A A35G	1.06
A4U G39C	0.0848
G36C G41C	0.141
G41A G44A	0.483
C21A G43U	0.0849
A1U C25G	0.0576
C5G A35U	0.637
C14G G38U	0.111
G16U G24A	0.129
G29C G41A	0.108
U31C G36A	0.725
C9G C20U	0.23
G17U U37A	0.092

Variant	self-cleavage
A1U A22U	0.0726
A34G G41A	0.141
C5U G39U	0.175
U12G G38U	0.76
C25G G44C	0.248
C8G G47A	0.208
C21G G42C	0.13
G42U G45U	0.191
U18G A23C	0.0482
A35C G48C	1.08
U18G C46U	0.129
C20A A32C	0.111
U12G G48C	0.929
C8A U31G	0.57
A4C A34U	0.0292
A23G G28U	0.184
A22G A34U	0.096
G16A G17U	0.232
C9G G48A	0.443
A11U G45C	0.733
A10C G38A	0.947
A33U G44C	0.928
U12A C19U	0.882
A30C A40G	0.189

Variant	self-cleavage
U31A G39C	0.151
U12A C46G	1.12
C19U A40U	0.133
A10C G16A	0.726
G16U G17C	0.105
U6C G13A	0.0845
C15G G44C	0.0763
A23U A30G	0.506
C14U A23C	0.51
C14U A23G	0.666
G38A G45C	0.65
G24A A33C	0.0756
C5U G16A	0.584
U31A A32G	0.985
A4G G48A	0.955
C14A G28C	0.757
C3G G48A	0.405
A30C U31G	0.839
C15A G45A	0.478
C25A G39U	0.115
A33G G47C	0.394
G47C	0.706
C25A G29C	0.0958
